Columns and labels:
[1] = biological target: sGFPori (sGFP 1–10 OPT), recombinant; test: SEC; size-exclusion HPLC of purified, non-complemented sFPs at high concentration; sGFP2 (ReAsH-labelled) at 20 µM, concentrations of the other sFPs not stated
[2] = biological target: sGFPori (sGFP 1–10 OPT), recombinant; test: fluorescence polarisation; steady-state fluorescence anisotropy of ReAsH-labelled sFP at 20, 10, 5, 2.5, 1.25 and 0.5 µM, after equilibrium at RT, triplicate; apparent equilibrium constant of dimer formation (monomers to dimer)
[3] = biological target: M3 peptide (complementary 11th β-strand peptide of split GFP); test: other fluorescence titration; fluorescence complementation kinetics, pseudo-first order: 0.1 µM M3 peptide with 0.1–30 µM total sFP, TN buffer pH 8.0 with 1 mM DTT, 5 mM EDTA, 0.05% CHAPS, 25 °C, 14 hours; kobs1 against the concentration of sFP monomers fitted by a line; binding irreversible

## sGFPori (sGFP 1–10 OPT), recombinant (domain or fragment)
[1]
  stoichiometry N: 2
[2]
  Ka: 320000 M⁻¹
[3]
  kon: 70 M⁻¹ s⁻¹
